The target in test [1] is N-terminal transactivation domain (TAD) of the tumor suppressor protein p53, labeled with Alexa 488 and Alexa 594, biotinylated. The experiment in a line: FRET or BRET; single-molecule three-color FRET, CW donor excitation; biotinylated TAD immobilized on PEG-coated glass via NeutrAvidin, 25 nM NCBD in solution; 10 mM Tris pH 7, 0 mM NaCl, 23 °C; maximum likelihood analysis of photon trajectories, 8-state model with acceptor blinking. On the technique in general: Bioluminescence resonance energy transfer reports proximity on the nanometre scale.

Test [2] has the same target. The experiment in a line: FRET or BRET; single-molecule three-color FRET, CW donor excitation; biotinylated TAD immobilized on PEG-coated glass via NeutrAvidin, 100 nM NCBD in solution; 10 mM Tris pH 7, 10 mM NaCl, 23 °C; maximum likelihood analysis of photon trajectories, 8-state model with acceptor blinking.
For test [3] the target is unchanged. The experiment in a line: FRET or BRET; single-molecule three-color FRET, CW donor excitation; biotinylated TAD immobilized on PEG-coated glass via NeutrAvidin, 200 nM NCBD in solution; 10 mM Tris pH 7, 30 mM NaCl, 23 °C; maximum likelihood analysis of photon trajectories, 8-state model with acceptor blinking.

pKd: −log10 of the molar value.

In general, pKd refers to the negative decadic logarithm of the Kd, by convention in mol/L. A high value points to a low Kd. By kon is commonly meant the rate constant with which the complex forms. Read a low kon as slower complex formation. Turning to “nuclear coactivator binding domain (NCBD) of the CREB binding protein (CBP), S2066C, labeled with CF680R (domain or fragment)”, the negative logarithm of the Kd (pKd) in test [1] is 6.91; in test [2] it was 6.28; in test [3] it was 5.61. Also, the on-rate (kon) turned out to be 2.04e+09 M⁻¹ s⁻¹ in test [1], 9.1e+08 M⁻¹ s⁻¹ in test [2] and 5.2e+08 M⁻¹ s⁻¹ in test [3].

The record behind these values is article PMC7335206.
